Assay results as given in patent publication US10919943B2, “Mutant proteins enabling agrochemical control of plant gene expression” (The Regents of the University of California, priority 2016, dated 2021).
Residue numbers refer to the chain shown, from its start. In names and notes the source's numbering stands.

T1: PYR1*^-MANDI (Arabidopsis thaliana, UniProt O49686, A160V/F108A/F159V/K59R/M158I/S122G/T162D/V81I/Y58H)
T1 construct: expressed in transfected cells; host or cells: S. cerevisiae strain MAV99 (selection)
T1 sequence (O49686 1-191 Y58H/K59R/V81I/F108A/S122G/M158I/F159V/A160V/T162D): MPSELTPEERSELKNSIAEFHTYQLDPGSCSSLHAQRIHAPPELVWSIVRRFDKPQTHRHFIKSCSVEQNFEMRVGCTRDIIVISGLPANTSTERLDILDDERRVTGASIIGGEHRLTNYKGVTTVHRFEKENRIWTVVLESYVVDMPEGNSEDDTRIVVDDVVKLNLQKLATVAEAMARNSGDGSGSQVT

B1: S322D (protein, listed as Arabidopsis thaliana)
chain: MEEMTPAVAMTLSLAANTMCESSPVEITQLKNVTDAADLLSDSENQSFCNGGTECTMEDVSELEEVGEQDLLKTLSDTRSGSSNVFDEDDVLSVVEDNSAVISEGLLVVDAGSELSLSNTAMEIDNGRVLATAIIVGESSIEQVPTAEVLIAGVNQDTNTSEVVIRLPDENSNHLVKGRSVYELDCIPLWGTVSIQGNRSEMEDAFAVSPHFLKLPIKMLMGDHEGMSPSLTHLTGHFFGVYDGHGGHKVADYCRDRLHFALAEEIERIKDELCKRNTGEGRQVQWDKVFTSCFLTVDGEIEGKIGRAVVGSSDKVLEAVADETVGSTAVVALVCSSHIVVSNCGDSRAVLFRGKEAMPLSVDHKPDREDEYARIENAGGKVIQWQGARVFGVLAMSRSIGDRYLKPYVIPEPEVTFMPRSREDECLILASDGLWDVMNNQEVCEIARRRILMWHKKNGAPPLAERGKGIDPACQAAADYLSMLALQKGSKDNISIIVIDLKAQRKFKTRT
B2: S322E (protein, listed as Arabidopsis thaliana)
chain: B1 chain with D322E
B3: R199A (protein, listed as Arabidopsis thaliana)
chain: B1 chain with R199A, D322S

Molecular target: T1, PYR1*^-MANDI
Experiment: Yeast two hybrid, mandipropamid-induced interaction of HAB1 variants with pBD-PYR1*^-MANDI
Type: cell-based
Details: selection on 500 nM mandipropamid
From the text: To investigate the effects of overexpressing HAB1^!-2 in Arabidopsis, we used Agrobacterium mediated transformation to generate 35S::GFP-HAB1^!-2 transgenic plants. HAB1^!-2 was cloned from pACT-HAB1^!-2 into pEGAD, a binary vector suitable for plant transformation, generating a 35S-driven GFP-HAB1^!-2 fusion protein. The clone was transformed into Agrobacterium and the floral dip method used to transform Arabidopsis. After selection of T0 seed on soil containing glufosinate, several T1 seedlings were identified. […] As an alternate strategy, we eliminated HAB1's catalytic activity by introducing a mutation in a conserved metal-ion binding residue (D204), which is homologous to D131A mutation in ABI1, previously shown to eliminate phosphatase activity without disrupting wild type receptor-ABI1 interactions (Liang et al., 2011). We used QuickChange mutagenesis to introduce the D204A mutation into pACT-HAB1^!-2, generating pACT-HAB1^!-3. When tested for mandipropamid induced interactions with pBD-PYR1*^-MANDI, HAB1^!-3 is ˜10-fold less sensitive to mandipropamid relative to HAB1^!-2 (FIG. 5).
D204 is located within HAB1's catalytic active site and binds to one of 3 catalytic Mg^++ ions that participate in catalysis. […] It is likely that disruptions to active site structure introduced by D204A destabilize the PYR1*^-MANDI/HAB1^!-3 interaction relative to HAB1^!-2. We reasoned that suppressor mutations in other HAB1 interface or active site residues could restore sensitivity by strengthening interactions with PYR1*^-MANDI. To identify such suppressors, we mutagenized the pACT-HAB1^!-3 template using NNK mutagenesis in 28 residues located with at the PYR1 binding interface. The residues targeted were: R199, S200, E201, E203, D243, G244, H245, G246, G247, S322, E323, T324, D346, K365, K381, 1383, Q384, W385, Q386, R389, F391, G392, Y404, S431, G433, D436, D492 and N394. The pACT-HAB1^!-3 template was mutagenized in 28 separate NNK mutagenesis reactions using the QuickChange protocol. Mini-libraries, each containing ˜1000 clones, were made for each NNK reaction and plasmid DNA for the 28 mutations prepared, pooled, and then transformed into S. cerevisiae strain MAV99 co-transformed with pBD-PYR1*^-MANDI, and then plated onto selective SD(-Leu,-Trp,-Ura) agar media supplemented with 500 nM mandipropamid. […] S322D and R199A were combined using the Lightning Multi-site Mutagenesis™ (Agilent, USA) method, and the resultant pentuple mutant tested in combination with pBD-PYR1*^-MANDI for sensitivity to mandipropamid using β-galactosidase assays.

| Molecule | effect of mutation on mandipropamid responsiveness of HAB1^!-3 |
| --- | --- |
| B1 | enhance responsiveness of HAB1^!-3 |
| B2 | enhance responsiveness of HAB1^!-3 |
| B3 | enhance responsiveness of HAB1^!-3 |
